Measurements reported in the supplement of paper PMC10567573.

B1: MLL5 (parent)
chain: TYLCERCQPRNLDKERAVLLQRRK

Variants of: B1
Assay: protein stability index of a GFP-peptide fusion (GPS, HEK-293T) (PSI 1-6); higher = more stable
Details: c terminus: a fixed tail appended
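Further: lentivirally expressed fusions sorted by FACS into six bins by GFP to DsRed ratio, PSI derived from sequencing read proportions per bin multiplied by bin number.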

**Q.** For TYLCERCQPRNQDKERAVLLQRRK [L12Q], which protein stability index is on record?
**A.** 3.79

**Q.** For TYLCERCQPRNMDKERAVLLQRRK [L12M], which protein stability index is on record?
**A.** 3.49

**Q.** For TYSCERCQPRNLDKERAVLLQRRK [L3S], which protein stability index is on record?
**A.** 2.18

**Q.** For TYPCERCQPRNLDKERAVLLQRRK [L3P], which protein stability index is on record?
**A.** 2.31

**Q.** Which protein stability index does the source give for TYQCERCQPRNLDKERAVLLQRRK [L3Q] here?
**A.** 2.42

**Q.** Which protein stability index does the source give for TYYCERCQPRNLDKERAVLLQRRK [L3Y] here?
**A.** 2.56

**Q.** With TYNCERCQPRNLDKERAVLLQRRK [L3N] as the variant, how does the protein stability index read?
**A.** 3.55

**Q.** Which protein stability index does the source give for TYLCERCQQRNLDKERAVLLQRRK [P9Q] here?
**A.** 3.16

**Q.** Which protein stability index does the source give for TYLCERCQRRNLDKERAVLLQRRK [P9R] here?
**A.** 2.35

**Q.** Which protein stability index does the source give for TYLCERCQDRNLDKERAVLLQRRK [P9D] here?
**A.** 2.32

**Q.** With TYLCERCQYRNLDKERAVLLQRRK [P9Y] as the variant, how does the protein stability index read?
**A.** 3.52

**Q.** With TYLCERCQVRNLDKERAVLLQRRK [P9V] as the variant, how does the protein stability index read?
**A.** 2.36

**Q.** For TYLCERCQARNLDKERAVLLQRRK [P9A], which protein stability index is on record?
**A.** 1.86

**Q.** Which protein stability index does the source give for TYLCERCQPRNLSKERAVLLQRRK [D13S] here?
**A.** 2.76

**Q.** For TYLCERCQPRNLYKERAVLLQRRK [D13Y], which protein stability index is on record?
**A.** 2.48

**Q.** Which protein stability index does the source give for TYLCERCQPRNLMKERAVLLQRRK [D13M] here?
**A.** 2

**Q.** With TYLCERCQPRNLAKERAVLLQRRK [D13A] as the variant, how does the protein stability index read?
**A.** 2.7

**Q.** With TYLCERCQPRNLGKERAVLLQRRK [D13G] as the variant, how does the protein stability index read?
**A.** 2.71

**Q.** Which protein stability index does the source give for TYLCERCQPRQLDKERAVLLQRRK [N11Q] here?
**A.** 2.41

**Q.** Which protein stability index does the source give for TYLCERCQPRYLDKERAVLLQRRK [N11Y] here?
**A.** 1.43

**Q.** For TYLCERCQPRILDKERAVLLQRRK [N11I], which protein stability index is on record?
**A.** 1.68

**Q.** Which protein stability index does the source give for TYLCERCQPRFLDKERAVLLQRRK [N11F] here?
**A.** 1.9

**Q.** With TYLCERCQPRLLDKERAVLLQRRK [N11L] as the variant, how does the protein stability index read?
**A.** 2.12

**Q.** For TYLCERCQPRPLDKERAVLLQRRK [N11P], which protein stability index is on record?
**A.** 2.18

**Q.** Which protein stability index does the source give for TYLCERCQPRKLDKERAVLLQRRK [N11K] here?
**A.** 2.05

**Q.** Which protein stability index does the source give for TYLCERCQPRELDKERAVLLQRRK [N11E] here?
**A.** 1.52

**Q.** Which protein stability index does the source give for TYLCERCQPRNLDKERAVLLSRRK [Q21S] here?
**A.** 1.99

**Q.** Which protein stability index does the source give for TYLCERCQPRNLDKERAVLLDRRK [Q21D] here?
**A.** 2.78

**Q.** With TYLCERCQPRNLDKERAVLLGRRK [Q21G] as the variant, how does the protein stability index read?
**A.** 2.91

**Q.** For TYLCERCQPRNLDKERAVLLHRRK [Q21H], which protein stability index is on record?
**A.** 3.22

**Q.** For TYLCERCQPRNLDKERAVLLIRRK [Q21I], which protein stability index is on record?
**A.** 1.73

**Q.** Which protein stability index does the source give for TYLCERCQPRNLDKERAVKLQRRK [L19K] here?
**A.** 2.18

**Q.** Which protein stability index does the source give for TYLCERCQPRNLDKERAVELQRRK [L19E] here?
**A.** 2.76

**Q.** For TYLCERCQPRNLDKERAVDLQRRK [L19D], which protein stability index is on record?
**A.** 2.42

**Q.** Which protein stability index does the source give for TYLCERCQPRNLDKERAVHLQRRK [L19H] here?
**A.** 2.54

**Q.** Which protein stability index does the source give for TYLCERCQPRNLDKERAVWLQRRK [L19W] here?
**A.** 1.93

**Q.** With TYLCERCQPRNLDKERAVMLQRRK [L19M] as the variant, how does the protein stability index read?
**A.** 2.71

**Q.** For TYLCERCQPRNLDKERAVYLQRRK [L19Y], which protein stability index is on record?
**A.** 2.83

**Q.** With TYLCERCQPRNLDKERAVSLQRRK [L19S] as the variant, how does the protein stability index read?
**A.** 2.9

**Q.** Which protein stability index does the source give for TYLCERCQPRNLDKERAVNLQRRK [L19N] here?
**A.** 2.08

**Q.** With TYLCERCQPRNLDKERAVGLQRRK [L19G] as the variant, how does the protein stability index read?
**A.** 3.37

**Q.** For TYLCERCQPRNLDKERANLLQRRK [V18N], which protein stability index is on record?
**A.** 1.93

**Q.** With TYLCERCQPRNLDKERAYLLQRRK [V18Y] as the variant, how does the protein stability index read?
**A.** 1.65

**Q.** With TYLCERCQPRNLDKERAELLQRRK [V18E] as the variant, how does the protein stability index read?
**A.** 2.52

**Q.** With TYLCERCQPRNLDKERAALLQRRK [V18A] as the variant, how does the protein stability index read?
**A.** 1.81

**Q.** For TYLCERCQPRNLDKERATLLQRRK [V18T], which protein stability index is on record?
**A.** 2.82

**Q.** For TYLCERCQPRNLDKERAFLLQRRK [V18F], which protein stability index is on record?
**A.** 1.96

**Q.** With TYLCERCQPRNLDKERAPLLQRRK [V18P] as the variant, how does the protein stability index read?
**A.** 1.6

**Q.** For TYLCERCQPRNLDKERAWLLQRRK [V18W], which protein stability index is on record?
**A.** 2.2

**Q.** For TYLCERCQPRNLDKERAILLQRRK [V18I], which protein stability index is on record?
**A.** 2.68

**Q.** Which protein stability index does the source give for TYLCERCQPRNLDKERAMLLQRRK [V18M] here?
**A.** 2.19

**Q.** Which protein stability index does the source give for TYLCERCQPRNLDKERALLLQRRK [V18L] here?
**A.** 3.05

**Q.** With TYLCEKCQPRNLDKERAVLLQRRK [R6K] as the variant, how does the protein stability index read?
**A.** 1.59

**Q.** Which protein stability index does the source give for TYLCELCQPRNLDKERAVLLQRRK [R6L] here?
**A.** 1.49

**Q.** With TYLCEFCQPRNLDKERAVLLQRRK [R6F] as the variant, how does the protein stability index read?
**A.** 1.79

**Q.** For TYLCESCQPRNLDKERAVLLQRRK [R6S], which protein stability index is on record?
**A.** 2.83

**Q.** With TYLCEMCQPRNLDKERAVLLQRRK [R6M] as the variant, how does the protein stability index read?
**A.** 1.81

**Q.** For TYLCECCQPRNLDKERAVLLQRRK [R6C], which protein stability index is on record?
**A.** 2.2

**Q.** Which protein stability index does the source give for TYLCETCQPRNLDKERAVLLQRRK [R6T] here?
**A.** 1.92

**Q.** With TYLCERCQPRNLDKERAVLLQRRG [K24G] as the variant, how does the protein stability index read?
**A.** 1.69

**Q.** Which protein stability index does the source give for TYLCERCQPRNLDKERAVLLQRRY [K24Y] here?
**A.** 1.91

**Q.** Which protein stability index does the source give for TYLCERCQPRNLDKERAVLLQRRM [K24M] here?
**A.** 1.81

**Q.** For TYLCERCQPRNLDKERAVLLQRRH [K24H], which protein stability index is on record?
**A.** 2.74

**Q.** For TYLCERCQPRNLDKERAVLLQRRW [K24W], which protein stability index is on record?
**A.** 3.28

**Q.** With TYLCERCQPRNLDKERAVLLQRRD [K24D] as the variant, how does the protein stability index read?
**A.** 2.36

**Q.** Which protein stability index does the source give for TYLCERCQPRNLDKERAVLLQRRP [K24P] here?
**A.** 2.38

**Q.** Which protein stability index does the source give for TYLCERCQPRNLDKIRAVLLQRRK [E15I] here?
**A.** 2.2

**Q.** For TYLCERCQPRNLDKDRAVLLQRRK [E15D], which protein stability index is on record?
**A.** 2.42

**Q.** For TYLCERCQPRNLDKGRAVLLQRRK [E15G], which protein stability index is on record?
**A.** 2.71

**Q.** With TYLCERCQPRNLDKFRAVLLQRRK [E15F] as the variant, how does the protein stability index read?
**A.** 2.14

**Q.** With TYLCERCQPRNLDKRRAVLLQRRK [E15R] as the variant, how does the protein stability index read?
**A.** 2.34

**Q.** For TYLCERCQPRNLDKQRAVLLQRRK [E15Q], which protein stability index is on record?
**A.** 2.24

**Q.** For TYLCERCQPRNLDKEMAVLLQRRK [R16M], which protein stability index is on record?
**A.** 3.23

**Q.** With TYLCERCQPRNLDKEVAVLLQRRK [R16V] as the variant, how does the protein stability index read?
**A.** 2.27

**Q.** Which protein stability index does the source give for TYLCERCQPRNLDKEGAVLLQRRK [R16G] here?
**A.** 2.32

**Q.** For TYLCERCQPRNLDKEIAVLLQRRK [R16I], which protein stability index is on record?
**A.** 1.94

**Q.** With TYLCERCQPRNLDKEEAVLLQRRK [R16E] as the variant, how does the protein stability index read?
**A.** 1.92

**Q.** For TYLCERCQPRNLDKEPAVLLQRRK [R16P], which protein stability index is on record?
**A.** 2.24

**Q.** For RYLCERCQPRNLDKERAVLLQRRK [T1R], which protein stability index is on record?
**A.** 2.76

**Q.** For FYLCERCQPRNLDKERAVLLQRRK [T1F], which protein stability index is on record?
**A.** 1.27

**Q.** For DYLCERCQPRNLDKERAVLLQRRK [T1D], which protein stability index is on record?
**A.** 2.73

**Q.** Which protein stability index does the source give for YYLCERCQPRNLDKERAVLLQRRK [T1Y] here?
**A.** 2.14

**Q.** Which protein stability index does the source give for NYLCERCQPRNLDKERAVLLQRRK [T1N] here?
**A.** 2.13

**Q.** With VYLCERCQPRNLDKERAVLLQRRK [T1V] as the variant, how does the protein stability index read?
**A.** 1.5

**Q.** With SYLCERCQPRNLDKERAVLLQRRK [T1S] as the variant, how does the protein stability index read?
**A.** 1.87

**Q.** Which protein stability index does the source give for AYLCERCQPRNLDKERAVLLQRRK [T1A] here?
**A.** 2.29

**Q.** With TYLCERCQPRNLDKERAVLLQTRK [R22T] as the variant, how does the protein stability index read?
**A.** 2.1

**Q.** With TYLCERCQPRNLDKERAVLLQERK [R22E] as the variant, how does the protein stability index read?
**A.** 1.76

**Q.** For TYLCERCQPRNLDKERAVLLQIRK [R22I], which protein stability index is on record?
**A.** 2.44

**Q.** For TYLCERCQPRNLDKERAVLLQWRK [R22W], which protein stability index is on record?
**A.** 2.14

**Q.** With TYLCERCQPRNLDKERAVLLQDRK [R22D] as the variant, how does the protein stability index read?
**A.** 2.2

**Q.** With TYLCERCQPRNLDKERAVLLQVRK [R22V] as the variant, how does the protein stability index read?
**A.** 1.98

**Q.** Which protein stability index does the source give for TYLCERCQPRNLDKERAVLLQNRK [R22N] here?
**A.** 1.99

**Q.** Which protein stability index does the source give for TYLCERCQPRNLDKERAVLLQPRK [R22P] here?
**A.** 2.9
